Test results as given in FireProtDB (doi:10.1016/j.bbapap.2007.04.008).
“And” between values parts separate entries of the source, which are not always exact repeats. Identical values can stand only once.

Conditions: Brassica napus, pH 7, 27 °C, GdnHCl, phosphate 0.02 M, transition: 3, reversible: Yes, whole UniProt chain shown

B1: Napin-1A wild type, P24565 (protein)
chain: QPQKCQREFQQEQHLRACQQWIRQQLAGSPFQSGPQEGPWLREQCCNELYQEDQVCVCPTLKQAAKSVRVQGQHGPFQSTRIYQIAKNLPNVCNMKQIGTCPFIAIPFFP
denaturant m value (CD): 1.8 kcal/mol/M and 1.2 kcal/mol/M | unfolding free energy (CD): 5.2 kcal/mol and 5.1 kcal/mol | denaturant m value (Fluorescence): 1.6 kcal/mol/M and 1.3 kcal/mol/M | unfolding free energy (Fluorescence): 5.2 kcal/mol and 5.1 kcal/mol
